Data on 6 molecules can be found in patent publication US20170065725A1 (published 2017).

Where two headings read alike, the source gives them in different places.

Experiment [1] concerns the target T1, porcine TSH receptor (immobilized, TSH Receptor Autoantibody 2nd Generation ELISA kit, RSR Limited) (porcine, UniProt Q8SPP9 22-764, limits assumed).
T1 construct: Bought kit plates; the construct is not described
Nature of the experiment: competition ELISA; inhibition of biotinylated rhTSH binding to immobilized porcine TSH receptor. As to the method:
(§1) Purified PEGylated conjugates were analyzed by in vitro porcine TSH receptor binding assay using the TSH Receptor Autoantibody 2nd Generation ELISA kit from RSR Limited (Kronus, Star, Id.). Instead of using the biotinylated human monoclonal autoantibody to the TSH receptor provided by the kit, we biotinylated Thyrogen® (rhTSH) to use for competitive inhibition of binding to TSH receptor. Binding of biotinylated rhTSH to immobilized porcine TSH receptor was inhibited by either rhTSH control or PEGylated rhTSH conjugates and IC₅₀ values were measured.
(§2) Thyrogen® was biotinylated with 1.7 to 1.8 biotins per protein using the ChromaLink™ Biotin Labeling Reagent according to the manufacturer's protocol (QED Bioscience Inc., San Diego, Calif.) and buffer exchanged into 50 mM sodium phosphate, 150 mM sodium chloride pH 7.0 with a Zeba™ Desalt Spin Column (Thermo Scientific, Rockford, Ill.). In vitro measurement of receptor binding was performed by competition of biotinylated Thyrogen® and PEG-rhTSH conjugate for binding to porcine TSH receptor immobilized onto 96-well plates supplied with the TSH Receptor Autoantibody 2nd Generation ELISA kit from RSR Limited (Kronus, Star, Id.). PEG-rhTSH conjugates were serially diluted 1:5 from 16 μM to 41 pM in assay buffer (100 mM HEPES pH 7.5, 20 mM EDTA, 1% BSA, 0.5% Triton X-100) and mixed 1:1 with biotinylated Thyrogen® diluted 1000-fold in assay buffer. The mixture was added to each receptor-coated well and incubated at 25° C. for 25 minutes. Unbound rhTSH was washed away and streptavidin peroxidase was added at 25° C. for 20 minutes according to the RSR Limited ELISA protocol to determine the amount of biotinylated Thyrogen® bound to the plate. The plate was then washed three times to remove excess unbound streptavidin peroxidase and then tetramethylbenzidine (TMB) was added to each well and incubated in the dark at 25° C. for 30 minutes. The reaction which was quenched with 0.5M sulfuric acid stop buffer and the absorbance of each well was read at 450 nm using a SpectraMax® 340pc plate reader (Molecular Devices, Sunnyvale, Calif.). The data was fit using a sigmoidal dose response equation with GraphPad Prism software to generate IC₅₀ values.
(In general: In an ELISA, binding on a coated surface is turned into a signal by an enzyme label.)

Experiment [2] addresses T1, porcine TSH receptor (immobilized, TSH …). Described as above. The protocol: as §1, §2
This is another data set of the same source.

Experiment [3] shares this target. Description: in vitro TSH receptor binding assay (competition ELISA).

T1 sequence (Q8SPP9 22-764 limits assumed): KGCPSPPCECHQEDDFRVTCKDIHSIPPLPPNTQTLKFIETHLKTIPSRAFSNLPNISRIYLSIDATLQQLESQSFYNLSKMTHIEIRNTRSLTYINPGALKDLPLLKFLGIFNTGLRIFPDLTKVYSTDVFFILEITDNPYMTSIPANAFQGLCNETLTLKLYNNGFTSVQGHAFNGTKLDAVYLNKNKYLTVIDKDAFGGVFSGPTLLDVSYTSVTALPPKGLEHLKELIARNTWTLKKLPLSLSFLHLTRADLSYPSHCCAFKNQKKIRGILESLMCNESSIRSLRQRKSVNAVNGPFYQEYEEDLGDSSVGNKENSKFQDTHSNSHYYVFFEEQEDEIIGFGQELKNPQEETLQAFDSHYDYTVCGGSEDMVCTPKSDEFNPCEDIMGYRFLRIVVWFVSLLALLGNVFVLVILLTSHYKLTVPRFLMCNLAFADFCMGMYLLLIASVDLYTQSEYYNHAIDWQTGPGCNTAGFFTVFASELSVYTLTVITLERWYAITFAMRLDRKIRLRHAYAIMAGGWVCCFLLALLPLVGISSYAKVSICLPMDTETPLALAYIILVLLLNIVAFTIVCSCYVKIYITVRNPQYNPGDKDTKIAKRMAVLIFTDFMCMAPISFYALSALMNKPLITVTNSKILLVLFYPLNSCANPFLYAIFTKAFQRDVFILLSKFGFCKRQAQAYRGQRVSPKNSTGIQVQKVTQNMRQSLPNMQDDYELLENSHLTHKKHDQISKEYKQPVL

B1: G22C rhTSH (TSH G22C (alpha)) (ligand)
alpha: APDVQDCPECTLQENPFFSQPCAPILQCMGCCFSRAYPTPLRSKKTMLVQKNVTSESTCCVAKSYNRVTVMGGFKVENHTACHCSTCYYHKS
beta: FCIPTEYTMHIERRECAYCLTINTTICAGYCMTRDINGKLFLPKYALSQDVCTYRDFIYRTVEIPGCPLHVAPYFSYPVALSCKCGKCNTDYSDCIHEAIKTNYCTKPQKSYLVGFSV
modifications: Alpha Cys22 may carry a cap after expression; whether the assayed sample was capped is not stated. N-glycans at alpha Asn52, Asn78 and beta Asn23.
notes: Cysteine mutant without PEG, produced in CHO cells; also called alphaG22C TSH
A word on the IC50: it is the concentration that inhibits the measured activity by half. A higher IC50 goes with weaker potency. Regarding B1, in experiment [1], the IC50 stood at 41.6 nM and the “fold change (IC50 against rhTSH)” value came to 1.5 fold.

B2: 40 kD 2-arm PEG G22C (ligand)
alpha: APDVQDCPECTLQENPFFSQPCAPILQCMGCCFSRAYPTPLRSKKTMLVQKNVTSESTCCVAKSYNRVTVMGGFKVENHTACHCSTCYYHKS
beta: FCIPTEYTMHIERRECAYCLTINTTICAGYCMTRDINGKLFLPKYALSQDVCTYRDFIYRTVEIPGCPLHVAPYFSYPVALSCKCGKCNTDYSDCIHEAIKTNYCTKPQKSYLVGFSV
modifications: Chain 1 (alpha) pos 22: Cys carrying a 40 kD 2-arm (branched) cysteine-reactive PEG, written C. N-glycans at alpha Asn52, Asn78 and beta Asn23.
Turning to B2, in experiment [1], the IC50 stood at 417 nM and the “fold change (IC50 against rhTSH)” value amounted to 14.9 fold.

B3: 40 kD linear G22C (PEGylated Cys-mutant TSH) (ligand)
alpha: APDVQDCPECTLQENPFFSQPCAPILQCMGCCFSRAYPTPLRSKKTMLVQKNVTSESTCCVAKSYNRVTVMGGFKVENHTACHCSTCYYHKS
beta: FCIPTEYTMHIERRECAYCLTINTTICAGYCMTRDINGKLFLPKYALSQDVCTYRDFIYRTVEIPGCPLHVAPYFSYPVALSCKCGKCNTDYSDCIHEAIKTNYCTKPQKSYLVGFSV
modifications: Chain 1 (alpha) pos 22: Cys carrying a 40 kD linear cysteine-reactive PEG, written C. N-glycans at alpha Asn52, Asn78 and beta Asn23.
notes: also called 40 KD G22C
Turning to B3, in experiment [1], the half-maximal inhibitory concentration (IC50) was 248 nM and the “fold change (IC50 against rhTSH)” value worked out at 8.9 fold.

B4: 40 kD 4-arm PEG G22C (ligand)
alpha: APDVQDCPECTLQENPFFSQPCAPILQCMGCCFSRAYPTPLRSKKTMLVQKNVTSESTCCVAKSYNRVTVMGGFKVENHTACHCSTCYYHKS
beta: FCIPTEYTMHIERRECAYCLTINTTICAGYCMTRDINGKLFLPKYALSQDVCTYRDFIYRTVEIPGCPLHVAPYFSYPVALSCKCGKCNTDYSDCIHEAIKTNYCTKPQKSYLVGFSV
modifications: Chain 1 (alpha) pos 22: Cys carrying a 40 kD 4-arm (branched) cysteine-reactive PEG, written C. N-glycans at alpha Asn52, Asn78 and beta Asn23.
As to B4, in experiment [1], the IC50 turned out to be 743 nM and the “fold change (IC50 against rhTSH)” value was 26.5 fold.

B5: Recombinant human TSH (rhTSH), THYROGEN Thyroid Stimulating Hormone (ligand)
alpha: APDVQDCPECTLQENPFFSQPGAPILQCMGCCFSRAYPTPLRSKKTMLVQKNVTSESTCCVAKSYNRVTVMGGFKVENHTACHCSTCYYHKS
beta: FCIPTEYTMHIERRECAYCLTINTTICAGYCMTRDINGKLFLPKYALSQDVCTYRDFIYRTVEIPGCPLHVAPYFSYPVALSCKCGKCNTDYSDCIHEAIKTNYCTKPQKSYLVGFSV
modifications: N-linked glycans at alpha Asn52 and Asn78 and beta Asn23; not carried by the letters.
notes: also called TSH control; control TSH; copies: 1 + 1
On to B5, for which, in experiment [2], the IC50 was 36.7 nM and the “fold change (IC50 against rhTSH)” value was 1 fold. In experiment [1], the IC50 was 28 nM and the “fold change (IC50 against rhTSH)” value was found to be 1 fold.

B6: N-terminal mono-PEGylated rhTSH with 40 kD PEG (ligand)
alpha: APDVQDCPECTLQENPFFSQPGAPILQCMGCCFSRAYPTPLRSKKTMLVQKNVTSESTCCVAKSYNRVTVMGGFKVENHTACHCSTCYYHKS
beta: FCIPTEYTMHIERRECAYCLTINTTICAGYCMTRDINGKLFLPKYALSQDVCTYRDFIYRTVEIPGCPLHVAPYFSYPVALSCKCGKCNTDYSDCIHEAIKTNYCTKPQKSYLVGFSV
modifications: One 40 kD aldehyde PEG on an N-terminal amine (alpha Ala1 or beta Phe1; which subunit is not stated). N-glycans at alpha Asn52, Asn78 and beta Asn23. None is carried by the letters.
notes: also called 40 kD N-terminal
With B6, the 50% inhibitory concentration (IC50) in experiment [2] amounted to 397 nM; in experiment [1] it was 319 nM. For the same molecule, the “fold change (IC50 against rhTSH)” value in experiment [2] was 10.8 fold; in experiment [1], 11.4 fold. For the same molecule, in experiment [3], the “fold decrease of receptor binding affinity against rhTSH control” value amounted to 11.1 fold.
